The record followed here is patent CN109776677A (SHANGHAI PHARMEXPLORER COMPANY LTD, dated 2019).

Assay [1] has as its target 免疫原A (his标签重组人IL-13蛋白) (human) (UniProt P35225). The experiment in a line: SPR (Biacore), steps as Example 9.
Assay [2] shares this target. Kind of assay: SPR (Biacore), antibody captured on anti-human Fc CM5 chip, immunogen A as analyte, 1:1 global fit.
Assay [3] shares this target. The experiment in a line: SPR (Biacore), sentence on the group of 表27.
A further assay addresses T1, 鼠IL-13 (小鼠 (mouse), UniProt P20109 19-131, limits assumed).
T1 construct: Bought protein; also called 小鼠IL-13; 鼠IL-13变体
T1 sequence (looked up): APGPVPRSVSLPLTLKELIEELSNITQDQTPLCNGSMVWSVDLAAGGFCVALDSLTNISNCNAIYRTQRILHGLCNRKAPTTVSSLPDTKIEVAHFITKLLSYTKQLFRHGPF
The experiment in a line: ELISA, IL-13 at 0.5 μg/mL on streptavidin plate, serially diluted antibody, HRP second antibody.

B1: c29D9H8 (antibody, V domains shown)
VH: QVQLQQSGAELVRPGASVTLSCKASGYTFTDYEMHWVKQTPVHGLEWIGGIDPETGGTASNQKFKGKAILTADKSSSTAYMELRSLTSEDSAVYYCTSGDYFGGGPFAYWGQGTLVTVSA
VL: DIKMTQSPSSMYASLGERVTITCKASQDINSYLSWFQQKPGKSPKTLIYRANRLVDGVPSRFSGSGSGQDYSLTISSLDYEDMGIYYCLQYDEFPYTFGGGTKLEIK
In assay [1], B1 came in with a Kd of 0.0247 nM, a koff of 0.000962 s⁻¹ and a kon of 3.9e+07 M⁻¹ s⁻¹. In assay [2], this molecule displayed an equilibrium dissociation constant (Kd) of 0.0324 nM, a koff of 0.000813 s⁻¹ and a kon of 2.51e+07 M⁻¹ s⁻¹. In assay [3], this molecule came in with a dissociation constant Kd of less than 90 nM.

B2: 35E2C3 (antibody, V domains shown)
VH: EVQLQESGPGLAKPSQTLSLTCSVTGYSITSDYWNWIRKFPGNKLEYMGYISYNGNTYYNPSLKSQISITRDTSKNQLYLQLKSATTEDTATYYCARLAKWTWYFDIWGTGTTVTVSS
VL: DIQMNQSPSSLSASLGDTITITCHASQNINVWLSWYQQKPGSLPKLLIYKASDLHTGVPSRFSGSGSGTGFTLTISSLQPEDIATYYCQQGQSYPYTFGGGTKLEIK
notes: also called 先导抗体; IL-13先导抗体
Consider B2, for which the dissociation constant (Kd) is 0.86 nM in assay [1], 0.863 nM in assay [2] and less than 90 nM in assay [3]. In addition, the koff was determined as 0.000248 s⁻¹ in assay [1] and 0.00026 s⁻¹ in assay [2]. In addition, the values for the kon in assay [1] and in assay [2] were 289000 M⁻¹ s⁻¹ and 300000 M⁻¹ s⁻¹, respectively. Moreover, the binding result with 鼠IL-13 was “no binding”.
